The values that follow come from the RNAGym collection of RNA variant scans (doi:10.7554/elife.90254).

To fix the notation:
B1: LINE1-mini (parent)
chain: GGCAGAGCUCAACACAGCGUGGCAAAGUGGCUGUGGCUAGACUGCC

In the data set the parent is B1. Nature of the data set: self-cleavage, relative activity (ratio to wild type); higher = more cleavage; in vitro, sequencing; the parent is a self-cleaving ribozyme.
Consider GGGAGAGCUCAACAGAGCGUGGCAAAGUGGCUGUGGCUAGACUGCC [C3G C15G], for which the self-cleavage is 0.04.

On to GGGAGAGCUCAACAUAGCGUGGCAAAGUGGCUGUGGCUAGACUGCC [C3G C15U], for which the self-cleavage turned out to be 0.25. The value for GGGAGGGCUCAACACAGCGUGGCAAAGUGGCUGUGGCUAGACUGCC [C3G A6G] was 0.08.

In the case of GGGAGUGCUCAACACAGCGUGGCAAAGUGGCUGUGGCUAGACUGCC [C3G A6U], the self-cleavage came out at 0.79. Regarding GGGAGCGCUCAACACAGCGUGGCAAAGUGGCUGUGGCUAGACUGCC [C3G A6C], the self-cleavage worked out at 0.27. In the case of GGGAGAGCUCAACACAGCGUGGCAAAGUGGCUGUGGCUCGACUGCC [C3G A39C], the self-cleavage is 0.14.

GGGAGAGCUCAACACAGCGUGGCAAAGUGGCUGUGGCUGGACUGCC [C3G A39G]: the self-cleavage is 0.56. The value for GGGAGAGCUCAACACAGCGUGGCAAAGUGGCUGUGGCUUGACUGCC [C3G A39U] was 0.27; that for GGGAGAGCUCAACACAGCGUGGCACAGUGGCUGUGGCUAGACUGCC [C3G A25C] was 0.18; that for GGGAGAGCUCAACACAGCGUGGCAUAGUGGCUGUGGCUAGACUGCC [C3G A25U] was 0.47. On to GGGAGAGCUCAACACAGCGUGGCAGAGUGGCUGUGGCUAGACUGCC [C3G A25G], for which the self-cleavage came out at 0.14.

On to GGAAGAGCUCAACACAGCGUGGCAAAGUGGCUGUGGCUAUACUGCC [C3A G40U], for which the self-cleavage came out at 0.21.

As for GGAAGAGCUCAACACAGCGUGGCAAAGUGGCUGUGGCUAAACUGCC [C3A G40A], the self-cleavage was found to be 0.16. The value for GGAAGAGCUCAACACAGCGUGGCAAAGUGGCUGUGGCUACACUGCC [C3A G40C] was 0.19; that for GGAAGAGCUCAACACAGCGUGGCAAAGUGGCUCUGGCUAGACUGCC [C3A G33C] was 0.1; that for GGAAGAGCUCAACACAGCGUGGCAAAGUGGCUUUGGCUAGACUGCC [C3A G33U] was 0.15. Take GGAAGAGCUCAACACAGCGUGGCAAAGUGGCUAUGGCUAGACUGCC [C3A G33A]: the self-cleavage came to 0.37. For GGAAGAGCUCAACACAGCGUGGCAAAGUGGCUGUGGCUAGACUACC [C3A G44A], the self-cleavage is 0.91. As for GGAAGAGCUCAACACAGCGUGGCAAAGUGGCUGUGGCUAGACUUCC [C3A G44U], the self-cleavage is 2.11. Regarding GGAAGAGCUCAACACAGCGUGGCAAAGUGGCUGUGGCUAGACUCCC [C3A G44C], the self-cleavage is 0.86. The value for GGGAGAGCUAAACACAGCGUGGCAAAGUGGCUGUGGCUAGACUGCC [C3G C10A] was 0.05; that for GGGAGAGCUUAACACAGCGUGGCAAAGUGGCUGUGGCUAGACUGCC [C3G C10U] was 0.19; that for GGGAGAGCUGAACACAGCGUGGCAAAGUGGCUGUGGCUAGACUGCC [C3G C10G] was 0.04.

In the case of GGAAGAGCUCAACACAGCGUGGCAAAGUGGCUGUGCCUAGACUGCC [C3A G36C], the self-cleavage is 1.01. Regarding GGAAGAGCUCAACACAGCGUGGCAAAGUGGCUGUGACUAGACUGCC [C3A G36A], the self-cleavage turned out to be 1.1.

In the case of GGAAGAGCUCAACACAGCGUGGCAAAGUGGCUGUGUCUAGACUGCC [C3A G36U], the self-cleavage was 0.38.

For GGAAGAGCUCAACACAGCGUGGCAAAGUGGCAGUGGCUAGACUGCC [C3A U32A], the self-cleavage amounted to 0.12. GGAAGAGCUCAACACAGCGUGGCAAAGUGGCCGUGGCUAGACUGCC [C3A U32C]: the self-cleavage turned out to be 0.31.

For GGAAGAGCUCAACACAGCGUGGCAAAGUGGCGGUGGCUAGACUGCC [C3A U32G], the self-cleavage amounted to 0.15. In the case of GGGAGAGCUCAACACGGCGUGGCAAAGUGGCUGUGGCUAGACUGCC [C3G A16G], the self-cleavage turned out to be 0.23.

As to GGGAGAGCUCAACACCGCGUGGCAAAGUGGCUGUGGCUAGACUGCC [C3G A16C], the self-cleavage was 0.12.

For the variant GGGAGAGCUCAACACUGCGUGGCAAAGUGGCUGUGGCUAGACUGCC [C3G A16U], the self-cleavage was determined as 0.18. With GGGAGAGCUCAACACAGCGUGGAAAAGUGGCUGUGGCUAGACUGCC [C3G C23A], the self-cleavage was found to be 0.47.

For GGGAGAGCUCAACACAGCGUGGUAAAGUGGCUGUGGCUAGACUGCC [C3G C23U], the self-cleavage came out at 0.81.

With GGGAGAGCUCAACACAGCGUGGGAAAGUGGCUGUGGCUAGACUGCC [C3G C23G], the self-cleavage turned out to be 0.2. The same measure for GGAAGAGCUCAACACAGCGUGGCAAAGGGGCUGUGGCUAGACUGCC [C3A U28G]: 0.42; for GGAAGAGCUCAACACAGCGUGGCAAAGCGGCUGUGGCUAGACUGCC [C3A U28C]: 0.32; for GGAAGAGCUCAACACAGCGUGGCAAAGAGGCUGUGGCUAGACUGCC [C3A U28A]: 0.32. On to GGGAGAGUUCAACACAGCGUGGCAAAGUGGCUGUGGCUAGACUGCC [C3G C8U], for which the self-cleavage was 0.39. The value for GGGAGAGGUCAACACAGCGUGGCAAAGUGGCUGUGGCUAGACUGCC [C3G C8G] was 0.08; that for GGGAGAGAUCAACACAGCGUGGCAAAGUGGCUGUGGCUAGACUGCC [C3G C8A] was 0.52; that for GGGAGAGCUCAACACAGCGUGGCAAAGUGGCUGUGGGUAGACUGCC [C3G C37G] was 0.13. The same measure for GGGAGAGCUCAACACAGCGUGGCAAAGUGGCUGUGGUUAGACUGCC [C3G C37U]: 0.5; for GGGAGAGCUCAACACAGCGUGGCAAAGUGGCUGUGGAUAGACUGCC [C3G C37A]: 0.29; for GGGUGAGCUCAACACAGCGUGGCAAAGUGGCUGUGGCUAGACUGCC [C3G A4U]: 0.36.

On to GGGCGAGCUCAACACAGCGUGGCAAAGUGGCUGUGGCUAGACUGCC [C3G A4C], for which the self-cleavage stood at 0.11. The value for GGGGGAGCUCAACACAGCGUGGCAAAGUGGCUGUGGCUAGACUGCC [C3G A4G] was 0.2; that for GGAAGAGCUCAACACAGCGUGGCAAAGUAGCUGUGGCUAGACUGCC [C3A G29A] was 0.51.

As for GGAAGAGCUCAACACAGCGUGGCAAAGUCGCUGUGGCUAGACUGCC [C3A G29C], the self-cleavage was found to be 0.25. The same measure for GGAAGAGCUCAACACAGCGUGGCAAAGUUGCUGUGGCUAGACUGCC [C3A G29U]: 0.71. The same measure for GGGAGAGCUCAACACAGCGUGGCGAAGUGGCUGUGGCUAGACUGCC [C3G A24G]: 0.5.

In the case of GGGAGAGCUCAACACAGCGUGGCCAAGUGGCUGUGGCUAGACUGCC [C3G A24C], the self-cleavage is 0.35. On to GGGAGAGCUCAACACAGCGUGGCUAAGUGGCUGUGGCUAGACUGCC [C3G A24U], for which the self-cleavage was 0.72. With GGAAGAGCUCAACACAGCGUGGCAAAGUGGCUGUGGCGAGACUGCC [C3A U38G], the self-cleavage turned out to be 0.51. The value for GGAAGAGCUCAACACAGCGUGGCAAAGUGGCUGUGGCCAGACUGCC [C3A U38C] was 0.26. Take GGAAGAGCUCAACACAGCGUGGCAAAGUGGCUGUGGCAAGACUGCC [C3A U38A]: the self-cleavage stood at 0.34.
